Source: US20210187118A1

Legend:
[1] = biological target: TF-glycosylated PDTR MUC1 tandem repeat peptide …-T(TF)-…; test: antigen ELISA on TF-glycosylated PDTR MUC1 peptide, protein A purified antibodies
[2] = biological target: Tn-glycosylated PDTR MUC1 tandem repeat peptide …-T(Tn)-…; test: antigen ELISA on Tn-glycosylated PDTR MUC1 peptide, protein A purified antibodies
Tn-glycosylated PDTR MUC1 tandem repeat peptide …-T(Tn)-…, sequence (peptide, as listed by the source limits assumed): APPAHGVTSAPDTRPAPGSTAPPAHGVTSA

TF-glycosylated PDTR MUC1 tandem repeat peptide …-T(TF)-…, sequence (peptide, as listed by the source limits assumed): as above

Substance: PankoMab N54W (antibody)
- EC50 (read off the curve) [1]: 8 ng/mL
- EC50 (read off the curve) [2]: 10 ng/mL
